# Data: article doi:10.1101/2025.08.01.668162
# Like-named read-outs stand apart in the source and are kept apart here.
# Tests used:
# [1] = molecular target: SEL1L S658P (mouse knock-in) (mouse (endogenous in MEFs and liver)) (UniProt Q9Z2G6); assay: co-IP
# [2] = molecular target: SEL1L S658P (mouse knock-in) (mouse (endogenous in MEFs and liver)) (UniProt Q9Z2G6); assay: co-IP; remark: listed apart in the source
# Chain of UniProt Q9Z2G6 (Q9Z2G6 22-790, stated change not applied): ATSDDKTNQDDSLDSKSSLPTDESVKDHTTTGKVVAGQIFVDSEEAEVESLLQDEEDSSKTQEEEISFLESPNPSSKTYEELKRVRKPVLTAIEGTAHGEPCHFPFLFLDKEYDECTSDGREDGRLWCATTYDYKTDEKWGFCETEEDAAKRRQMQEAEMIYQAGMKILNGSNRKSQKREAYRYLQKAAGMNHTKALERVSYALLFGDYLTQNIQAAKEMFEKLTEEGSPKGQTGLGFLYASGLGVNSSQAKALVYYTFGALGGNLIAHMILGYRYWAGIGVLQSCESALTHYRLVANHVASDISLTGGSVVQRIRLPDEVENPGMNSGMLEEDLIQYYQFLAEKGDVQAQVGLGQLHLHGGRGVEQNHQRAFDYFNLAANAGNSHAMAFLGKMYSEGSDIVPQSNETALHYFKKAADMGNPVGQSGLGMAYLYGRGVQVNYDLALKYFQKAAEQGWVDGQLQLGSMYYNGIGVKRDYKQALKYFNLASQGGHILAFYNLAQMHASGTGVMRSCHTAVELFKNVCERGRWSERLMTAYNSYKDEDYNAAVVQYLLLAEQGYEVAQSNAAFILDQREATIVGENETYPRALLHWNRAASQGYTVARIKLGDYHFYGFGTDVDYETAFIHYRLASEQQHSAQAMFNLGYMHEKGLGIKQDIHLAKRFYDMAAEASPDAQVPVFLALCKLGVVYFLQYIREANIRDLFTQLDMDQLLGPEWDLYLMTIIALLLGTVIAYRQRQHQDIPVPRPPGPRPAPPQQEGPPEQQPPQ
substance,measurement,setting,value
HRD1 (mouse) (from UniProt Q9DBY1 1-612) (natural protein),percent reduction of co-precipitated HRD1 against WT SEL1L,[1],80%
same,percent reduction of co-precipitated HRD1 against WT SEL1L,[2],60%
